# Measured values published in publication doi:10.1101/2020.12.18.423546 (bioRxiv, 2020).
# B1: Bax (α2-α5) (human Bax residues D53 to K128 with C62S and C126S mutations) (domain or fragment)
# chain: DASTKKLSESLKRIGDELDSNMELQRMIAAVDTDSPREVFFRVAADMFSDGNFNWGRVVALFYFASKLVLKALSTK
# Tests used:
# cross-linking = target: the molecule itself; experiment: cross-linking
# SEC-MALS = target: the molecule itself; experiment: SEC-MALS
protein,measurement,setting,value
B1,stoichiometry N,cross-linking,2
same,stoichiometry N,SEC-MALS,4
